Measurements reported in US6090929.

Experiments:
[1] = biological target: PKC βII
[2] = biological target: recombinant fragment of RIIα (RII 1-45); assay: SPR (IAsys), gravin 1526-1780 coupled to the cuvette, RIIα 1-45 at 25 to 150 nM

Row | IC50 of inhibition of PKC activity toward peptide substrate … [1] | Kd [2] | kon [2] | Binder
1 | 500 nM | – | – | gravin fragment residues 265-556 (protein) KEEGEEKQEKEPSKSAESPTSPVTSETGSTFKKFFTQGWAGWRKKTSFRKPKEDEVEASEKKKEQEPEKVDTEEDGKAEVASEKLTASEQAHPQEPAESAHEPRLSAEYEKVELPSEEQVSGSQGPSEEKPAPLATEVFDEKIEVHQEEVVAEVHVSTVEERTEEQKTEVEETAGSVPAEELVGMDAEPQEAEPAKELVKLKETCVSGEDPTQGADLSPDEKVLSKPPEGVVSEVEMLSSQERMKVQGSPLKKLFTSTGLKKLSGKKQKGKRGGGDEESGEHTQVPADSPDS
2 | – | 100 nM | 160000 M⁻¹ s⁻¹ | gravin fragment residues 1526-1780 (protein) VAIEDLEPENGILELETKSSKLVQNIIQTAVDQFVRTEETATEMLTSELQTQAHVIKADSQDAGQETEKEGEEPQASAQDETPITSAKEESESTAVGQAHSDISKDMSEASEKTMTVEVEGSTVNDQQLEEVVLPSEEEGGGAGTKSVPEDDGHALLAERIEKSLVEPKEDEKGDDVDDPENQNSALADTDASGGLTKESPDTNGPKQKEKEDAQEVELQEGKVHSESDKAITPQAQEELQKQERESAKSELTES
